Literature values in article PMC8314067.
Read-outs that look alike come from different tables or passages of the source.

What was measured:
[1] = biological target: type I receptor complex (IL-4Rα/γc) (Homo sapiens) (UniProt P24394)
[2] = biological target: type II receptor complex (IL-4Rα/IL-13Rα1) (Homo sapiens) (UniProt P24394)
[3] = biological target: type II receptor complex (IL-4Rα/IL-13Rα1) (Homo sapiens) (UniProt P24394); remark: listed apart in the source

## IL-4 (from UniProt P05112)
[1]
  Kd: 559 nM
[2]
  Kd: 487 nM

## IL-13 (from UniProt P35225)
[3]
  Kd: 20 nM
